Source: PMC2174365 (The Journal of Cell Biology, 2000)
Changes are numbered by the printed parent chain. Values belong to the binder of their own block, whether it stands above or below them.

Columns and labels:
cross-linking = molecular target: the molecule itself; experiment: cross-linking
[1] = molecular target: microtubules (taxol-stabilized; polymer of alpha- and beta-tubulin); experiment: cell-based or functional assay

- Km(MT) of the microtubule-stimulated ATPase, with 200 μM DTNB [1]: 1.24 μM tubulin
- Km(MT) of the microtubule-stimulated ATPase, without DTNB [1]: 0.84 μM tubulin
B1: Cys344 Cys-light K560-GFP (neck coiled-coil mutant Tyr344Cys) (domain or fragment, human, UniProt P33176 1-560, looked up)
chain: MADLAESNIKVMCRFRPLNESEVNRGDKYIAKFQGEDTVVIASKPYAFDRVFQSSTSQEQVYNDAAKKIVKDVLEGYNGTIFAYGQTSSGKTHTMEGKLHDPEGMGIIPRIVQDIFNYIYSMDENLEFHIKVSYFEIYLDKIRDLLDVSKTNLSVHEDKNRVPYVKGATERFVSSPDEVMDTIDEGKSNRHVAVTNMNEHSSRSHSIFLINVKQENTQTEQKLSGKLYLVDLAGSEKVSKTGAEGAVLDEAKNINKSLSALGNVISALAEGSTYVPYRDSKMTRILQDSLGGNARTTIVICCSPSSYNESETKSTLLFGQRAKTIKNTVSVNVELTAEQWKKKCEKEKEKNKILRNTIQWLENELNRWRNGETVPIDEQFDKEKANLEAFTVDKDITLTNDKPATAIGVIGNFTDAERRKAEEEIAKLYKQLDDKDEEINQQSQLVEKLKTQMLDQEELLASTRRDQDNMQAELNRLQAENDASKEEVKEVLQALEELAVNYDQKSQEVEDKTKEYELLSDELNQKSATLASIDAELQKLKEMTNHQKKRAAEMMASLLK
- stoichiometry N (cross-linking): 2

- Km(MT) of the microtubule-stimulated ATPase, with 200 μM DTNB [1]: 1.51 μM tubulin
- Km(MT) of the microtubule-stimulated ATPase, without DTNB [1]: 1.19 μM tubulin
B2: Cys337/Cys344 Cys-light K560-GFP (neck coiled-coil double mutant Ala337Cys/Tyr344Cys) (domain or fragment, human, UniProt P33176 1-560, looked up)
chain: B1 chain with A337C

- Km(MT) of the microtubule-stimulated ATPase, with 200 μM DTNB [1]: 1.59 μM tubulin
- Km(MT) of the microtubule-stimulated ATPase, without DTNB [1]: 1.2 μM tubulin
B3: Cys337 Cys-light K560-GFP (neck coiled-coil mutant Ala337Cys) (domain or fragment, human, UniProt P33176 1-560, looked up)
chain: B1 chain with A337C, C344Y
- stoichiometry N (cross-linking): 2
